Literature values as cited in PMC7905041.

Target: CD40 ECD (Homo sapiens) (UniProt P25942)
Assay: SPR

- Kd: 600 nM
Substance: CD40 CRD1/PLAD (from UniProt P25942)
